We go through one molecule from paper PMC5045189 (2016).

This assay has as its target T1, Staphylococcus aureus manganese transporter protein MntC, wild type, recombinant (Staphylococcus aureus, UniProt W8TNQ9 1-309).
T1 chain: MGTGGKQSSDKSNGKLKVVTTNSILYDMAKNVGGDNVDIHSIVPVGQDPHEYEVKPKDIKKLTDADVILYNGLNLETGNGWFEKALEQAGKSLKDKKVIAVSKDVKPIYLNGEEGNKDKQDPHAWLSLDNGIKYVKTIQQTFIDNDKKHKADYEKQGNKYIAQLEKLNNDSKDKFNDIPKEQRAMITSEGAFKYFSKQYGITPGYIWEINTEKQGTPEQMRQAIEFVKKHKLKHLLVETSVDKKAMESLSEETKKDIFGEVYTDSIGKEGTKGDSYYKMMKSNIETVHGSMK
Nature of the assay: ELISA.

B1: monoclonal antibody mAB 305-78-7 (intact antibody, interference group 2) (antibody, V domains shown)
VH: QVQLQQSGAELARPGASVKMSCKASGYTFTRYTMHWVQQRPGQGLEWIGYINPSSDYTKYNQKFKDKATMTADKSSSTAYMQLSSLTSEDSAVYYCARKEDVGYWYFDFWGTGTTVTVSS
VL: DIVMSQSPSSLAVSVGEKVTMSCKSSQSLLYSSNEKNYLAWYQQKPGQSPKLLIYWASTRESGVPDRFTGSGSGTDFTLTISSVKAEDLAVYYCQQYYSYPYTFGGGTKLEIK
As to B1, the Kd is 1.3 nM.
